The test deals with CD16aV (human) (UniProt P08637). Kind of test: BLI (Octet), His-captured hCD16aV, 1:1 model. For orientation: BLI is a label-free optical method that tracks binding on a fibre tip over time.
Sequence of CD16aV (human) (P08637 17-208 F176V limits assumed): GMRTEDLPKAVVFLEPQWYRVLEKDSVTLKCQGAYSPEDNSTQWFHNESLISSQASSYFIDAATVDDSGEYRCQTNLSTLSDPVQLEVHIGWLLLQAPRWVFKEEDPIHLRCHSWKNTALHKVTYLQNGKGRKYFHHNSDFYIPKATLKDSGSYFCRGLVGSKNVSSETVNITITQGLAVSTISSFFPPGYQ

A word on the Kd: it is the free concentration of one partner at which half of the binding sites on the other are occupied at equilibrium, for simple one-to-one binding. As for Fc-WT (antibody), the Kd turned out to be 580 nM.
